The supplement of paper PMC12042874
± gives the uncertainty stated by the source.

assay: amyloid nucleation score (Sup35N fusion, yeast selection) (log enrichment); library NNK2; higher = more nucleation; inactive = no reads after selection
In short: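 Sup35N was fused to peptides of 20 random codons and expressed in psi-negative yeast, which were induced with 100 μM copper sulfate for 24 hours and then grown on medium lacking adenine and uracil for 7 days at 30°C. Plasmid inserts from input and output were sequenced on Illumina. The nucleation score is the DiMSum log enrichment of output over input reads, centred on the mode score of non-aggregating sequences. Sequences with under 100 input reads were left out, and random libraries had three technical output replicates.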

Substance	amyloid nucleation score
HSWNV	inactive
HTFYVNKLPLPKL	0.875 ± 0.45
HTWDLYYAIYSA	-1.19 ± 0.36
HVAEEVMGIVARVRVLMILS	-0.598 ± 0.45
HVHGMYSGWCYDKTGQEKGM	0.624 ± 0.34
HVLEVPPAYPTQTSGMNPNS	-0.143 ± 0.76
HVRGDLSRTGKWVMLRCYTR	inactive
HVRMK	4.79 ± 0.1
HVSTSLYTIGSSVSWGMFQG	0.897 ± 0.47
HVVLNFCDTVWLMSKAP	9.03 ± 0.078
HVWGQLSCFARVALSDRSKM	3.07 ± 0.16
HWDQLV	-0.504 ± 0.78
HWGSVAGDFWGFVVWSRFGR	0.234 ± 0.34
HWMAFVKRTANFDVIDWSAG	-0.278 ± 0.39
HWSADDNFSSLQRLFVYMGR	4.583 ± 0.043
HYGNSWY	0.958 ± 0.48
HYLAIVTWLPYRCRF	0.935 ± 0.15
HYQYSFARTMVMLNMDWLML	0.462 ± 0.43
HYVSNEHSVRRTHHRKTKLT	0.753 ± 0.67
HYVVFVF	6.37 ± 0.084
HYWNWYVEL	4.582 ± 0.037
HYYWSALSSAFVNSMIVR	-1.09 ± 0.76

Substance	amyloid nucleation score
IALGLNSYGK	-1.74 ± 0.78
IALTQILLRFFGLHA	-0.305 ± 1.1
IAMIVIQYTIRHCGSAEAVG	2.34 ± 0.19
IANYSFELFII	2.87 ± 0.1
IARIRILCLL	0.234 ± 0.19
IARRLTMGLTRMM	1.56 ± 0.18
ICLVRWDMKSRVDGTSGM	5.194 ± 0.037
ICPRRS	0.474 ± 0.34
ICRGPQSSNCMEAFVQHFTK	0.417 ± 0.42
ICSAPGYL	inactive
ICSDFGPNSGYRHQWVCIGV	-0.023 ± 0.45
ICSYSVAGCYRKYRASFSGE	inactive
ICYLKTQGKWFIILPWFVMM	0.241 ± 0.8
IDCFIVISSMMSRVLYCGER	0.21 ± 0.25
IDFVVIKTLGMCDITYLYM	-0.573 ± 1.1
IDGKARDYMAGDARMNRF	-1.45 ± 0.75
IDLLFDFTDLMWLIYPVFLL	-1.93 ± 0.75
IDLSTMTAGTCISYCVYCRI	5.25 ± 0.1
IDNSTMDTCIMNRSQFTIRL	-0.412 ± 0.54
IDQCIYDHVHNWVRRVDTRS	0.223 ± 0.18
IDRCGTLVTPDGINGRVTRV	0.951 ± 0.55
IDSMGFSMKSFDFRYNTSRW	5.02 ± 0.092

Substance	amyloid nucleation score
IDSVIKTEARGQGVVARTRA	1.33 ± 0.28
IDSWCVTHATKIGSYWML	0.12 ± 0.34
IDVLYCHDSL	0.311 ± 0.42
IERHIYGMSDAVLGVD	-0.493 ± 1.1
IEVGRHRWALWRVAQSRLIG	0.308 ± 0.25
IFAAGYMYIFILVYLLTARG	-0.01 ± 1
IFCAGYDNPRFINLLLLPKG	3.05 ± 0.1
IFCCIRFLV	6.549 ± 0.03
IFCWRVSCEQRVFYLIESGR	-0.388 ± 0.24
IFGLCCFCGSYQRY	8.152 ± 0.033
IFKCRRVI	4.614 ± 0.041
IFLAWMVPAGFWR	0.56 ± 0.54
IFLCFGYYNLEVLCFDTRCQ	3.1 ± 0.064
IFLDHYS	-0.026 ± 0.35
IFLKWLYKSFDYNI	0.973 ± 0.23
IFNLSRAQTVINL	5.34 ± 0.063
IFRIWRTRGRRSRFVSIEIG	-0.802 ± 0.41
IFRNWGYSTFSHE	inactive
IFRSSTLIDLKDLGLTSH	1.27 ± 0.096
IFRVLTGVIK	-0.277 ± 0.26
IFSIHVVAQTINE	4.64 ± 0.085
IFSNIFSFV	3.55 ± 0.13

Substance	amyloid nucleation score
IFSWTLEV	0.249 ± 0.64
IGAMN	0.586 ± 0.44
IGCNVESVYAGLALQMT	2.7 ± 0.18
IGFSPLCQYHYCAYGCY	7.695 ± 0.032
IGIIYFIARFAVVPRSGIRQ	-0.114 ± 1
IGIMQMIYFVD	5.79 ± 0.068
IGTEMLTVYIFTYSSA	0.416 ± 0.74
IGVVILNHADSSLVTL	3.31 ± 0.091
IHNKWNKMYDRPYLIKIVAS	-0.37 ± 0.36
IIENDICHWSDICMEDLMDW	0.186 ± 0.54
IIGDTICVVIIKWNLKNYRS	3.67 ± 0.075
IIILFQVQCHVVRLSRVHKC	-0.658 ± 0.49
IILIYVCRRPCLISQDNAFF	inactive
IIMNVVHEDSLL	0.019 ± 0.5
IINWPQLFKVASWTPSKTPP	-0.07 ± 0.76
IIRMNLAGDGVESWGWDRLS	1.12 ± 0.45
IISSGSIDCVYWTWFLRY	-0.396 ± 0.55
IIVSATSEGSLRRIRMKMGW	4.27 ± 0.11
IIWQPHSPCVRVYTCLSLIF	-1.67 ± 0.53
IIYLIGLTRARHWCRLRYEL	-0.063 ± 0.3
IKDLSRGCFSFYW	1.37 ± 0.17
